Laboratory results reported in publication PMC10180619 (Nature Communications, 2023).

Molecular target: T1, SARS-CoV-2 WT (Wuhan-1) receptor binding domain (SARS-CoV-2, Wuhan-Hu-1, UniProt P0DTC2, biotin (EZ-Link Sulfo-NHS-LC-Biotin, average of four biotins per RBD molecule))
T1 construct: source: bought: Acro Biosystems (Cat #SPD-C52H3)
Assay: BLI
Details: both partners purified

B1: ADI-81654 (Fab, V domains shown)
VH: QVQLKQSGPTLVKPTQTLTLTCTFSGFSLSTYGVGVGWIRQPPGKALEWLALIYYDDDKRYSPSLKSRLTITKDTSQNQVVLTMTNMDPVDTATYYCARHTIATIFDFDSWGQGTLVTVSS
VL: QSVLTQPASVSGSPGQSITISCTGTSSDVGGHNYVSWYQQHPGKAPKLMIYEVSNRPSGVSNRFSGSKSGNTASLTISGLQAEDEADYSCSSYASSTSPVVFGGVTKLTVL
For B1, the Kd was 56 nM.
